The text below walks through data of patent publication US20030114404.

For the first data set, the system named is T1, VEGF165 (Homo sapiens), P15692-4.
T1 sequence: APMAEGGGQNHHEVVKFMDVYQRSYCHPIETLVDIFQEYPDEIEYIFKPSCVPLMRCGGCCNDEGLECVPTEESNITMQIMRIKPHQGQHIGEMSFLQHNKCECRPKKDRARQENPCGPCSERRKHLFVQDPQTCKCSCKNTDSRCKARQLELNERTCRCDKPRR
Kind of data set: filter. The settings on record: 2'-F pyrimidines; 37 C.
For “GGGAGGACGAUGCGGAGAAUCAGUGAAUGCUUAUAAAUCUCGYGUCAGACGACUCGCCCGA [VT30.3]”, the Kd is 0.005 nM.

Take “GGGAGGACGAUGCGGAYCAACCGAUUGACGUUAUGGGACGCUGGUCAGACGACUCGCCCGA [VP30.5]”: the Kd is 0.008 nM.

Sequence “GGGAGGACGAUGCGGCGGYACUUUGGAAGAAUUGAAUUUCCCGCUCAGACGACUCGCCCGA [VP30.26]” showed a Kd of 0.01 nM.

Sequence “GGGAGGACGAUGCGGUAGGAAGAAUUGGAAGCGCAUUUUCCUCGYCAGACGACUCGCCCGA [VP30.22]” had a Kd of 0.02 nM.

Regarding “GGGAGGACGAUGCGGYGAACCGAUGGAAUUUUUGGACGCUCGCCUCAGACGACUCGCCCGA [VP30.2]”, the Kd is 0.01 nM.

The next data set has as its system T2, VEGF, P15692-4.
T2 sequence: T1 sequence
Kind of data set: cell_activity. The settings on record: NX278 (dialkylglycerol, 2'-NH2, 2'-OMe, PS) embedded in DSPC:cholesterol liposome; KSY-1 Kaposi's sarcoma cell proliferation; HUVEC IC50 about 300 nM (p159).
Turning to “TTTTACCCUGAUGGUAGACGCCGGGGUGTTTTT [NX278-Liposome]”, the IC50 was determined as 100 nM.

The term Kd denotes the constant that tells how readily two partners part at equilibrium. A higher Kd goes with a looser complex. A word on the IC50: it is the concentration that gives 50% inhibition.
